Results reported in patent publication US20150197571A1.

How the values were obtained:
[1] = target: human PD-L1 expressed on 300.19 cells (human) (UniProt Q9NZQ7); assay: FACS blockade, B7-1-hIgG on 300-hPD-L1 cells, mAb '0.0.39' [sic] ug/ml
[2] = target: human PD-L1 expressed on 300.19 cells (human) (UniProt Q9NZQ7); assay: FACS blockade, B7-1-hIgG on 300-hPD-L1 cells, mAb 20 ug/ml
[3] = target: human PD-L1 expressed on 300.19 cells (human) (UniProt Q9NZQ7); assay: FACS blockade, B7-1-hIgG on 300-hPD-L1 cells, mAb 0.0195 ug/ml
[4] = target: human PD-L1 expressed on 300.19 cells (human) (UniProt Q9NZQ7); assay: FACS blockade, B7-1-hIgG on 300-hPD-L1 cells, mAb 0.078 ug/ml
[5] = target: T1, human PD-L2 expressed on 300.19 cells (human) (UniProt Q9BQ51); assay: FACS on hPD-L2 300 cells, antibody 1 ug/ml
T1 sequence: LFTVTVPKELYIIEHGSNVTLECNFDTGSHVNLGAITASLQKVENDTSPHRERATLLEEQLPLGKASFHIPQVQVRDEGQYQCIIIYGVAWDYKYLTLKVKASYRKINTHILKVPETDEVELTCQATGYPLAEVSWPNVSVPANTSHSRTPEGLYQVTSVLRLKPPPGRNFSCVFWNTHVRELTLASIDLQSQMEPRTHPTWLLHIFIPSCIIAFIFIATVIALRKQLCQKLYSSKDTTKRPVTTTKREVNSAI

[6] = target: T1, human PD-L2 expressed on 300.19 cells (human); assay: FACS competition, PD-1-Ig on hPD-L2 300 cells, mAb 90 ug/ml
[7] = target: human PD-L1 expressed on 300.19 cells (human) (UniProt Q9NZQ7); assay: FACS competition, PD-1-Ig on hPD-L1 300 cells, mAb 0.04 ug/ml
[8] = target: human PD-L1 expressed on 300.19 cells (human) (UniProt Q9NZQ7); assay: FACS on hPD-L1 300 cells, antibody 1 ug/ml
[9] = target: T1, human PD-L2 expressed on 300.19 cells (human); assay: FACS on hPD-L2 300 cells, antibody 0.1 ug/ml
[10] = target: T1, human PD-L2 expressed on 300.19 cells (human); assay: FACS competition, PD-1-Ig on hPD-L2 300 cells, mAb 1.1 ug/ml
[11] = target: T1, human PD-L2 expressed on 300.19 cells (human); assay: FACS competition, PD-1-Ig on hPD-L2 300 cells, mAb 30 ug/ml
[12] = target: human PD-L1 expressed on 300.19 cells (human) (UniProt Q9NZQ7); assay: FACS blockade, B7-1-hIgG on 300-hPD-L1 cells, mAb 0.625 ug/ml
[13] = target: human PD-L1 expressed on 300.19 cells (human) (UniProt Q9NZQ7); assay: FACS competition, PD-1-Ig on hPD-L1 300 cells, mAb 90 ug/ml
[14] = target: human PD-L1 expressed on 300.19 cells (human) (UniProt Q9NZQ7); assay: FACS blockade, B7-1-hIgG on 300-hPD-L1 cells, mAb 1.25 ug/ml
[15] = target: T1, human PD-L2 expressed on 300.19 cells (human); assay: FACS on hPD-L2 300 cells, antibody 10 ug/ml
[16] = target: human PD-L1 expressed on 300.19 cells (human) (UniProt Q9NZQ7); assay: FACS competition, PD-1-Ig on hPD-L1 300 cells, mAb 1.1 ug/ml
[17] = target: T1, human PD-L2 expressed on 300.19 cells (human); assay: FACS on 300.19 cells expressing human PD-L2
[18] = target: human PD-L1 expressed on 300.19 cells (human) (UniProt Q9NZQ7); assay: FACS blockade, B7-1-hIgG on 300-hPD-L1 cells, mAb 0.0098 ug/ml
[19] = target: human PD-L1 expressed on 300.19 cells (human) (UniProt Q9NZQ7); assay: FACS blockade, B7-1-hIgG on 300-hPD-L1 cells, mAb 2.5 ug/ml
[20] = target: human PD-L1 expressed on 300.19 cells (human) (UniProt Q9NZQ7); assay: FACS blockade, B7-1-hIgG on 300-hPD-L1 cells, mAb 0.313 ug/ml
[21] = target: human PD-L1 expressed on 300.19 cells (human) (UniProt Q9NZQ7); assay: FACS competition, PD-1-Ig on hPD-L1 300 cells, mAb 10 ug/ml
[22] = target: human PD-L1 expressed on 300.19 cells (human) (UniProt Q9NZQ7); assay: FACS blockade, B7-1-hIgG on 300-hPD-L1 cells, mAb 0.156 ug/ml
[23] = target: human PD-L1 expressed on 300.19 cells (human) (UniProt Q9NZQ7); assay: FACS on hPD-L1 300 cells, antibody 10 ug/ml
[24] = target: human PD-L1 expressed on 300.19 cells (human) (UniProt Q9NZQ7); assay: FACS on 300.19 cells expressing human PD-L1
[25] = target: human PD-L1 expressed on 300.19 cells (human) (UniProt Q9NZQ7); assay: FACS competition, PD-1-Ig on hPD-L1 300 cells, mAb 3.3 ug/ml
[26] = target: T1, human PD-L2 expressed on 300.19 cells (human); assay: FACS competition, PD-1-Ig on hPD-L2 300 cells, mAb 0.04 ug/ml
[27] = target: T1, human PD-L2 expressed on 300.19 cells (human); assay: FACS competition, PD-1-Ig on hPD-L2 300 cells, mAb 0.12 ug/ml
[28] = target: human PD-L1 expressed on 300.19 cells (human) (UniProt Q9NZQ7); assay: FACS on hPD-L1 300 cells, antibody 0.1 ug/ml
[29] = target: human PD-L1 expressed on 300.19 cells (human) (UniProt Q9NZQ7); assay: FACS blockade, B7-1-hIgG on 300-hPD-L1 cells, mAb 5 ug/ml
[30] = target: T1, human PD-L2 expressed on 300.19 cells (human); assay: FACS competition, PD-1-Ig on hPD-L2 300 cells, mAb 3.3 ug/ml
[31] = target: T1, human PD-L2 expressed on 300.19 cells (human); assay: FACS competition, PD-1-Ig on hPD-L2 300 cells, mAb 0.37 ug/ml
[32] = target: human PD-L1 expressed on 300.19 cells (human) (UniProt Q9NZQ7); assay: FACS blockade, B7-1-hIgG on 300-hPD-L1 cells, mAb 10 ug/ml
[33] = target: human PD-L1 expressed on 300.19 cells (human) (UniProt Q9NZQ7); assay: FACS blockade, PD-1-hIgG1 on PD-L1 300.19 cells
[34] = target: T1, human PD-L2 expressed on 300.19 cells (human); assay: FACS competition, PD-1-Ig on hPD-L2 300 cells, mAb 10 ug/ml
[35] = target: human PD-L1 expressed on 300.19 cells (human) (UniProt Q9NZQ7); assay: FACS competition, PD-1-Ig on hPD-L1 300 cells, mAb 0.37 ug/ml
[36] = target: T1, human PD-L2 expressed on 300.19 cells (human); assay: FACS blockade, PD-1-hIgG1 on PD-L2 300.19 cells

Sequence of UniProt Q9NZQ7 (Q9NZQ7 19-290): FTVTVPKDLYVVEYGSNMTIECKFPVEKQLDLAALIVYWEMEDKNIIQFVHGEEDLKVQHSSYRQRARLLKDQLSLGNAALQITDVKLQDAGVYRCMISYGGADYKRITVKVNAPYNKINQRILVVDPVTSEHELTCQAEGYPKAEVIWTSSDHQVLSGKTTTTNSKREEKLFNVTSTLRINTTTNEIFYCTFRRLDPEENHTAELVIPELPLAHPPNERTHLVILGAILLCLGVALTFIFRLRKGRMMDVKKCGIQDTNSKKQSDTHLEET

What does the source list for C1.18 mIgG2a control (antibody)?
Mean of PE Signal (bound B7-1-Ig) [1]: 4280; Mean of PE Signal (bound B7-1-Ig) [2]: 4540; Mean of PE Signal (bound B7-1-Ig) [3]: 3500; Mean of PE Signal (bound B7-1-Ig) [4]: 397

What does the source list for MOPC31C isotype control antibody?
Mean of PE signal [5]: 164; Mean of PE Signal (bound B7-1-Ig) [1]: 3990; Mean of PE Signal (bound PD-1-Ig) [6]: 53500; Mean of PE Signal (bound B7-1-Ig) [2]: 3590; Mean of PE Signal (bound PD-1-Ig) [7]: 13300; Mean of PE signal [8]: 183; Mean of PE signal [9]: 149; Mean of PE Signal (bound PD-1-Ig) [10]: 58400; Mean of PE Signal (bound PD-1-Ig) [11]: 54200; Mean of PE Signal (bound B7-1-Ig) [12]: 3710; Mean of PE Signal (bound PD-1-Ig) [13]: 11800; Mean of PE Signal (bound B7-1-Ig) [3]: 4760; Mean of PE Signal (bound B7-1-Ig) [14]: 3490; Mean of PE signal [15]: 173; Mean of PE Signal (bound PD-1-Ig) [16]: 13600; MFI [17]: 19; Mean of PE Signal (bound B7-1-Ig) [18]: 4410; Mean of PE Signal (bound B7-1-Ig) [19]: 3880; Mean of PE Signal (bound B7-1-Ig) [20]: 3960; Mean of PE Signal (bound PD-1-Ig) [21]: 12600; Mean of PE Signal (bound B7-1-Ig) [22]: 3720; Mean of PE Signal (bound B7-1-Ig) [4]: 4320; Mean of PE signal [23]: 263; MFI [24]: 45; Mean of PE Signal (bound PD-1-Ig) [25]: 11900; Mean of PE Signal (bound PD-1-Ig) [26]: 60800; Mean of PE Signal (bound PD-1-Ig) [27]: 59100; Mean of PE signal [28]: 250; Mean of PE Signal (bound B7-1-Ig) [29]: 3580; Mean of PE Signal (bound PD-1-Ig) [30]: 52600; Mean of PE Signal (bound PD-1-Ig) [31]: 60600; Mean of PE Signal (bound B7-1-Ig) [32]: 3550; MFI of bound PD-1-Ig (inversely proportional to blockage) [33]: 26700; Mean of PE Signal (bound PD-1-Ig) [34]: 52500; Mean of PE Signal (bound PD-1-Ig) [35]: 13500; MFI of bound PD-1-Ig (inversely proportional to blockage) [36]: 19200
